Drawing on US20240059759A1, this text covers EC50 and fold enhanced binding for one substance.

The target in experiment [1] is SARS-CoV-2 RBD (SinoBiological, Cat. No. 40592-V02H) (SARS-CoV-2) (UniProt P0DTC2). Put plainly: ELISA on RBD.
Experiment [2] shares this target.

As usually defined, the EC50 is the concentration needed to bring the measured effect to its halfway point. A low value points to greater potency.

For the substance VHH-72 D61S, the EC50 in experiment [1] came out at 0.17 µg/mL. The fold enhanced binding in experiment [2] was found to be 3 fold.
